Among the data in PMC10527347 (Journal of molecular biology, 2023) are binding result and Kd values, retold here.

Residue numbers refer to the chain shown, from its start. Numbers in names are those of the source.

For experiment [1], the target named is Hsp90Ec L493C (E. coli, UniProt P0A6Z3 1-624, L493C). The experiment can be described thus: pull-down.
The target in experiment [2] is Hsp90Ec K45C (E. coli, UniProt P0A6Z3 1-624, K45C). The experiment can be described thus: pull-down.
In experiment [3] the target is Hsp90Ec K71C (E. coli, UniProt P0A6Z3 1-624, K71C). Put plainly: pull-down.
Experiment [4] has as its target Hsp90Ec K99C (E. coli, UniProt P0A6Z3 1-624, K99C). The experiment can be described thus: pull-down.
In experiment [5] the target is Hsp90Ec K103C (E. coli, UniProt P0A6Z3 1-624, K103C). Put plainly: pull-down.
Experiment [6] deals with T1, Hsp90Ec K199C (E. coli, UniProt P0A6Z3 1-624, K199C). The experiment can be described thus: pull-down.
Experiment [7] deals with Hsp90Ec K492C (E. coli, UniProt P0A6Z3 1-624, K492C). Put plainly: pull-down.
Experiment [8] concerns the target Hsp90Ec K502C (E. coli, UniProt P0A6Z3 1-624, K502C). Put plainly: pull-down.
Experiment [9] has as its target T2, Hsp90Ec N347C (E. coli, UniProt P0A6Z3 1-624, N347C). Put plainly: pull-down.
In experiment [10] the target is Hsp90Ec K560C (E. coli, UniProt P0A6Z3 1-624, K560C). The experiment can be described thus: pull-down.
The target of experiment [11] is T3, Hsp90Ec N350C (E. coli, UniProt P0A6Z3 1-624, N350C). The experiment can be described thus: pull-down.
Experiment [12] deals with Hsp90Ec K354C (E. coli, UniProt P0A6Z3 1-624, K354C). Put plainly: pull-down.
In experiment [13] the target is Hsp90Ec Q358C (E. coli, UniProt P0A6Z3 1-624, Q358C). Put plainly: pull-down.
Experiment [14] has as its target Hsp90Ec wild-type (E. coli, UniProt P0A6Z3 1-624). Put plainly: BLI. (In general: BLI is a label-free optical method that tracks binding on a fibre tip over time.)
Experiment [15] concerns the target T3, Hsp90Ec N350C. Put plainly: cross-linking.
Experiment [16] deals with T2, Hsp90Ec N347C. Put plainly: cross-linking.
Experiment [17] addresses T1, Hsp90Ec K199C. Put plainly: cross-linking.
Experiment [18] concerns the target T2, Hsp90Ec N347C. Put plainly: cross-linking. This is another data set of the same source.

B1: biotin-labeled CbpA (natural protein, E. coli, UniProt P36659 1-306, looked up)
chain: MELKDYYAIMGVKPTDDLKTIKTAYRRLARKYHPDVSKEPDAEARFKEVAEAWEVLSDEQRRAEYDQMWQHRNDPQFNRQFHHGDGQSFNAEDFDDIFSSIFGQHARQSRQRPATRGHDIEIEVAVFLEETLTEHKRTISYNLPVYNAFGMIEQEIPKTLNVKIPAGVGNGQRIRLKGQGTPGENGGPNGDLWLVIHIAPHPLFDIVGQDLEIVVPVSPWEAALGAKVTVPTLKESILLTIPPGSQAGQRLRVKGKGLVSKKQTGDLYAVLKIVMPPKPDENTAALWQQLADAQSSFDPRKDWGKA
modifications: biotin label (site not stated)
As for B1, the binding result in [1], in [2], in experiment [3], in [4], in [5] and in [6] was “binds” each time. Further, the binding result in experiment [7], in experiment [8], in experiment [9], in experiment [10], in [11] and in [12] was “binds” throughout. The binding result in [13] is listed as “binds”. In experiment [14], this molecule registered a Kd of 11 ± 0.9 µM.

B2: CbpA J-domain A44C (domain or fragment, E. coli, UniProt P36659 1-78, looked up)
chain: MELKDYYAIMGVKPTDDLKTIKTAYRRLARKYHPDVSKEPDAECRFKEVAEAWEVLSDEQRRAEYDQMWQHRNDPQFN
With B2, the binding result in experiment [15] and in [16] was “binds” in each case.

B3: wild type CbpA J-domain fragment (residues 1-78) (domain or fragment, E. coli, UniProt P36659 1-78, looked up)
chain: B2 chain with C44A
B3: the binding result in experiment [17] and in experiment [18] was “binds” each time.

Usually Kd stands for a measure of binding affinity in units of concentration. Higher therefore signals lower affinity.
